From article doi:10.1101/2023.07.12.548668

molecular target: XLF (UniProt Q9H9Q4); experiment: NMR titration (2D lineshape, TITAN); settings: NMR buffer (composition, salt and pH not in material); 800 MHz, 298 K stated for relaxation measurements; EMSA buffer not given
Sequence (Q9H9Q4 whole entry): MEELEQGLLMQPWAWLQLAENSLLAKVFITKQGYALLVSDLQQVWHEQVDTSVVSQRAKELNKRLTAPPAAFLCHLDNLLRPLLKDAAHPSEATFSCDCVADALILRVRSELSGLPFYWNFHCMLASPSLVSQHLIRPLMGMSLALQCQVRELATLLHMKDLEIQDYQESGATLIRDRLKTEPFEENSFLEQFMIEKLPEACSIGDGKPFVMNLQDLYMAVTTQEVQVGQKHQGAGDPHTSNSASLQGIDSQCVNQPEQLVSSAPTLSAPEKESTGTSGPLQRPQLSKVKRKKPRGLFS

Compared with 15mer DNA, 18mer DNA is 4.2-fold lower in Kd: 141 µM for the first, 33.7 µM for the second.

21mer DNA gave a Kd of 16.2 µM.
